Eight molecules from US20210130494A1 (ALETA BIOTHERAPEUTICS, published 2021) can be followed below.

Test [1] addresses T1, CD20 on stable transfectant line 293-CD20 (UniProt P11836 1-297).
T1 construct: whole, on cells; also called CD20 expressing 293 cells
T1 sequence (looked up): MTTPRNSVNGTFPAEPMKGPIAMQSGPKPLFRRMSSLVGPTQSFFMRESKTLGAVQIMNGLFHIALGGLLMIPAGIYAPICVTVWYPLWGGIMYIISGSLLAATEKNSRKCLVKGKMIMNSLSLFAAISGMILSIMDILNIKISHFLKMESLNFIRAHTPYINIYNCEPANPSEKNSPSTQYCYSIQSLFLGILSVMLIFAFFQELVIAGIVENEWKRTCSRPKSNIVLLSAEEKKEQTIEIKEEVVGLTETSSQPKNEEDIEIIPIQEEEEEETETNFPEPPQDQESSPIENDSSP
Nature of the test: flow cytometry, 293-CD20 cells, FMC63-PE or anti-HIS-PE.

The target in test [2] is T2, Human BCMA Protein, Fc Tag (R&D Systems, Cat#193-BC-050) (human, UniProt Q02223 1-54).
T2 construct: Bought reagent; also called Human BCMA-Fc; BCMA-Fc
T2 sequence (looked up): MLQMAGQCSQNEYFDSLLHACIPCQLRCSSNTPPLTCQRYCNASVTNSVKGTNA
The test is described as follows: ELISA, plate-bound Human BCMA-Fc (FIG. 66A), anti-HIS-HRP.

In test [3] the target is T3, FMC63 CAR-Flag (construct #140) on transfected 293T cells.
T3 construct: FMC63 VL-VH-Flag-CD28 linker/transmembrane/ICD-4-1BB ICD-CD3z ICD; also called anti-CD19 FMC63 CAR; CAR19
The test is described as follows: flow cytometry, 293T cells transfected with #140, supernatant or 5 ug/ml purified #151/#152, anti-mouse Fc gamma-PE.

In test [4] the target is T1, CD20 on stable transfectant line …. The test is described as follows: flow cytometry, 293-CD20 cells, FMC63-PE.
For test [5] the target is unchanged. Nature of the test: flow cytometry, 293-CD20 cells, 200 µl fusion protein, FMC63-PE.

T3 sequence (chain, as listed by the source limits assumed): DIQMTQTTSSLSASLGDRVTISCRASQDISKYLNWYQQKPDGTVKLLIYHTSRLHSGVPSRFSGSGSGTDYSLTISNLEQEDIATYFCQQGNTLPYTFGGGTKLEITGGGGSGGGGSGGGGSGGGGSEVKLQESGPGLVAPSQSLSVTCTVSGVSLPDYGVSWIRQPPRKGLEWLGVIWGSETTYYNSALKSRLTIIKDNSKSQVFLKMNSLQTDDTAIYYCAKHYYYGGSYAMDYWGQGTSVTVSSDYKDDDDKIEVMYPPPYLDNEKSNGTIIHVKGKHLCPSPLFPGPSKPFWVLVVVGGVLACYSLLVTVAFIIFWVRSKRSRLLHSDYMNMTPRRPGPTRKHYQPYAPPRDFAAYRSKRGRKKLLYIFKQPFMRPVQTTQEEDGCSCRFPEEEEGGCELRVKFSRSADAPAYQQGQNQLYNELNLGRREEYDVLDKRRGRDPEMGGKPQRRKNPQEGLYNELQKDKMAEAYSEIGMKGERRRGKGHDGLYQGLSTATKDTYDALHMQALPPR

B1: CD19-D1+2-Leu16 scFv (VH/VL) (construct #83) (other)
chain: PEEPLVVKVEEGDNAVLQCLKGTSDGPTQQLTWSRESPLKPFLKLSLGLPGLGIHMRPLAIWLFIFNVSQQMGGFYLCQPGPPSEKAWQPGWTVNVEGSGELFRWNVSDLGGLGCGLKNRSSEGPSSPSGKLMSPKLYVWAKDRPEIWEGEPPCLPPRDSLNQSLSQDLTMAPGSTLWLSCGVPPDSVSRGPLSWTHVHPKGPKSLLSLELKDDRPARDMWVMETGLLLPRATAQDAGKYYCHRGNLTMSFHLEITARPGGGGSGGGGSGGGGSGGGGSMAQVKLQESGAELVKPGASVKMSCKASGYTFTSYNMHWVKQTPGQGLEWIGAIYPGNGDTSYNQKFKGKATLTADKSSSTAYMQLSSLTSEDSADYYCARSNYYGSSYWFFDVWGQGTTVTVSSGGGGSGGGGSGGGGSDIELTQSPTILSASPGEKVTMTCRASSSVNYMDWYQKKPGSSPKPWIYATSNLASGVPARFSGSGSGTSYSLTISRVEAEDAATYYCQQWSFNPPTFGGGTKLEIKRAAAHHHHHH
notes: C-terminal His tag
On to B1, for which the binding result in test [1] is “binds”.

B2: CD19-D1+2-C11D5.3 scFv (VH/VL) (construct #92) (other)
chain: PEEPLVVKVEEGDNAVLQCLKGTSDGPTQQLTWSRESPLKPFLKLSLGLPGLGIHMRPLAIWLFIFNVSQQMGGFYLCQPGPPSEKAWQPGWTVNVEGSGELFRWNVSDLGGLGCGLKNRSSEGPSSPSGKLMSPKLYVWAKDRPEIWEGEPPCLPPRDSLNQSLSQDLTMAPGSTLWLSCGVPPDSVSRGPLSWTHVHPKGPKSLLSLELKDDRPARDMWVMETGLLLPRATAQDAGKYYCHRGNLTMSFHLEITARPGGGGSGGGGSGGGGSGGGGSQIQLVQSGPELKKPGETVKISCKASGYTFTDYSINWVKRAPGKGLKWMGWINTETREPAYAYDFRGRFAFSLETSASTAYLQINNLKYEDTATYFCALDYSYAMDYWGQGTSVTVSSGSTSGSGKPGSGEGSTKGDIVLTQSPPSLAMSLGKRATISCRASESVTILGSHLIHWYQQKPGQPPTLLIQLASNVQTGVPARFSGSGSRTDFTLTIDPVEEDDVAVYYCLQSRTIPRTFGGGTKLEIKGGGGSGGGGSGGGGSHHHHHH
notes: C-terminal His tag
For B2, the binding result in test [2] is “binds”.

B3: anti-FMC63 antibody 136.20.1 (constructs #151/#152) (antibody, V domains shown)
VH: EVKLVESGGGLVQPGGSLKLSCAASGFDFSRYWMSWVRQAPGKGLEWIGEINLDSSTINYTPSLKDKFIISRDNAKNTLYLQMSKVRSEDTALYYCARRYDAMDYWGQGTSVTVSS
VL: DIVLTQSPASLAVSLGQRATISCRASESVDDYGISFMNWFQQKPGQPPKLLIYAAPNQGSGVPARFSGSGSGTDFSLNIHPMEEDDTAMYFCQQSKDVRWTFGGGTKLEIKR
notes: supernatant or purified protein (5 ug/ml); also called anti-FMC63 (anti-Id) antibody; secreted anti-FMC63 antibody
Turning to B3, the binding result in test [3] is on record as “binds”.

B4: C11D5.3 scFv (VL/VH) (construct #89) (scFv)
scFv: DIVLTQSPPSLAMSLGKRATISCRASESVTILGSHLIHWYQQKPGQPPTLLIQLASNVQTGVPARFSGSGSRTDFTLTIDPVEEDDVAVYYCLQSRTIPRTFGGGTKLEIKGSTSGSGKPGSGEGSTKGQIQLVQSGPELKKPGETVKISCKASGYTFTDYSINWVKRAPGKGLKWMGWINTETREPAYAYDFRGRFAFSLETSASTAYLQINNLKYEDTATYFCALDYSYAMDYWGQGTSVTVSSGGGGSGGGGSGGGGSHHHHHH
notes: C-terminal His tag
B4: the binding result in test [2] is on record as “binds”.

B5: CD19-D1+2-Leu16 scFv (VL/VH) (construct #85) (other)
chain: PEEPLVVKVEEGDNAVLQCLKGTSDGPTQQLTWSRESPLKPFLKLSLGLPGLGIHMRPLAIWLFIFNVSQQMGGFYLCQPGPPSEKAWQPGWTVNVEGSGELFRWNVSDLGGLGCGLKNRSSEGPSSPSGKLMSPKLYVWAKDRPEIWEGEPPCLPPRDSLNQSLSQDLTMAPGSTLWLSCGVPPDSVSRGPLSWTHVHPKGPKSLLSLELKDDRPARDMWVMETGLLLPRATAQDAGKYYCHRGNLTMSFHLEITARPGGGGSGGGGSGGGGSGGGGSDIELTQSPTILSASPGEKVTMTCRASSSVNYMDWYQKKPGSSPKPWIYATSNLASGVPARFSGSGSGTSYSLTISRVEAEDAATYYCQQWSFNPPTFGGGTKLEIKRGGGGSGGGGSGGGGSMAQVKLQESGAELVKPGASVKMSCKASGYTFTSYNMHWVKQTPGQGLEWIGAIYPGNGDTSYNQKFKGKATLTADKSSSTAYMQLSSLTSEDSADYYCARSNYYGSSYWFFDVWGQGTTVTVSSAAAHHHHHH
notes: C-terminal His tag
For the molecule B5, the binding result in test [4] is “no binding (tested: 200 µl)”.

B6: CD19-ECD-Leu16 scFv (VH/VL) (construct #63) (other)
chain: PEEPLVVKVEEGDNAVLQCLKGTSDGPTQQLTWSRESPLKPFLKLSLGLPGLGIHMRPLAIWLFIFNVSQQMGGFYLCQPGPPSEKAWQPGWTVNVEGSGELFRWNVSDLGGLGCGLKNRSSEGPSSPSGKLMSPKLYVWAKDRPEIWEGEPPCLPPRDSLNQSLSQDLTMAPGSTLWLSCGVPPDSVSRGPLSWTHVHPKGPKSLLSLELKDDRPARDMWVMETGLLLPRATAQDAGKYYCHRGNLTMSFHLEITARPVLWHWLLRTGGWKGGGGSGGGGSGGGGSGGGGSEVQLQQSGAELVKPGASVKMSCKASGYTFTSYNMHWVKQTPGQGLEWIGAIYPGNGDTSYNQKFKGKATLTADKSSSTAYMQLSSLTSEDSADYYCARSNYYGSSYWFFDVWGAGTTVTVSSGSTSGGGSGGGSGGGGSSDIVLTQSPAILSASPGEKVTMTCRASSSVNYMDWYQKKPGSSPKPWIYATSNLASGVPARFSGSGSGTSYSLTISRVEAEDAATYYCQQWSFNPPTFGGGTKLEIKHHHHHH
notes: C-terminal His tag; also called CD19 full-length extracellular domain-anti-CD20 Leu16 scFv VH-VL-His fusion protein
As to B6, in test [5], the binding result is reported as “binds”.

B7: CD19-D1+2-C11D5.3 scFv (VL/VH) (construct #91) (other)
chain: PEEPLVVKVEEGDNAVLQCLKGTSDGPTQQLTWSRESPLKPFLKLSLGLPGLGIHMRPLAIWLFIFNVSQQMGGFYLCQPGPPSEKAWQPGWTVNVEGSGELFRWNVSDLGGLGCGLKNRSSEGPSSPSGKLMSPKLYVWAKDRPEIWEGEPPCLPPRDSLNQSLSQDLTMAPGSTLWLSCGVPPDSVSRGPLSWTHVHPKGPKSLLSLELKDDRPARDMWVMETGLLLPRATAQDAGKYYCHRGNLTMSFHLEITARPGGGGSGGGGSGGGGSGGGGSDIVLTQSPPSLAMSLGKRATISCRASESVTILGSHLIHWYQQKPGQPPTLLIQLASNVQTGVPARFSGSGSRTDFTLTIDPVEEDDVAVYYCLQSRTIPRTFGGGTKLEIKGSTSGSGKPGSGEGSTKGQIQLVQSGPELKKPGETVKISCKASGYTFTDYSINWVKRAPGKGLKWMGWINTETREPAYAYDFRGRFAFSLETSASTAYLQINNLKYEDTATYFCALDYSYAMDYWGQGTSVTVSSGGGGSGGGGSGGGGSHHHHHH
notes: C-terminal His tag
For the molecule B7, in test [2], the binding result is reported as “binds”.

B8: C11D5.3 scFv (VH/VL) (construct #90) (scFv)
scFv: QIQLVQSGPELKKPGETVKISCKASGYTFTDYSINWVKRAPGKGLKWMGWINTETREPAYAYDFRGRFAFSLETSASTAYLQINNLKYEDTATYFCALDYSYAMDYWGQGTSVTVSSGSTSGSGKPGSGEGSTKGDIVLTQSPPSLAMSLGKRATISCRASESVTILGSHLIHWYQQKPGQPPTLLIQLASNVQTGVPARFSGSGSRTDFTLTIDPVEEDDVAVYYCLQSRTIPRTFGGGTKLEIKGGGGSGGGGSGGGGSHHHHHH
notes: C-terminal His tag
As to B8, in test [2], the binding result is “binds”.
